# Assay results: the RNAGym collection of RNA variant scans (doi:10.7554/elife.90254)
# B1: LINE1-mini (parent)
# chain: GGCAGAGCUCAACACAGCGUGGCAAAGUGGCUGUGGCUAGACUGCC
# Variants of: B1
# Assay: self-cleavage, relative activity (ratio to wild type); higher = more cleavage; in vitro, sequencing; the parent is a self-cleaving ribozyme
row,Variant,self-cleavage
1,G21A C46A,1.96
2,G21A C46G,1.5
3,G21A C46U,1.39
4,G21U,1.06
5,G21C,0.72
6,G21A,2.19
7,G21U A39U,0.63
8,G21U A39C,0.28
9,G21U A39G,0.08
10,G22A U38A,0.33
11,G22A U38C,0.68
12,G22A U38G,0.01
13,G21C A24C,0.43
14,G21C A24G,0.44
15,G21C A24U,0.63
16,G22A A26G,1.31
17,G22A A26C,0.79
18,G22A A26U,0.76
19,G21C G27U,0.84
20,G21C G27C,0.52
21,G21C G27A,0.84
22,G21U U32C,0.68
23,G21U U32G,0.26
24,G21U U32A,0.12

row,Variant,self-cleavage
1,G21C A39U,0.81
2,G21C A39C,0.07
3,G21C A39G,0.05
4,G21A A41C,0.12
5,G21A A41G,0.44
6,G21A A41U,0.83
7,G22C A25G,1.07
8,G22C A25U,1.23
9,G22C A25C,0.31
10,G21A C31A,0.12
11,G21A C31U,0.63
12,G21A C31G,0.13
13,G21C G36A,0.1
14,G21C G36C,0.03
15,G21C G36U,0.03
16,G21U G44C,0.25
17,G21U G44U,0.5
18,G21U G44A,0.53
19,G21A G30U,2.01
20,G21A G30A,1.73
21,G21A G30C,0.61
22,G21A G40C,0.22
23,G21A G40A,0.29
24,G21A G40U,0.19

row,Variant,self-cleavage
1,G22A C23U,1.14
2,G22A C23A,0.42
3,G22A C23G,0.47
4,G22C A24G,0.74
5,G22C A24U,0.52
6,G22C A24C,0.85
7,U20G G44U,0.23
8,U20G G44A,0.25
9,U20G G44C,0.26
10,U20G U38G,0.02
11,U20G U38A,0.2
12,U20G U38C,0.26
13,U20G U32G,0.09
14,U20G U32A,0.07
15,U20G U32C,0.06
16,G21U C23A,1.24
17,G21U C23U,1.38
18,G21U C23G,0.9
19,G21C A25U,1.14
20,G21C A25C,0.85
21,G21C A25G,0.94
22,G21A G35A,0.15
23,G21A G35U,0.35
24,G21A G35C,0.19

row,Variant,self-cleavage
1,G21U G35U,0.22
2,G21U G35A,0.16
3,G21U G35C,0.13
4,U20G G36A,0.08
5,U20G G36C,0.09
6,U20G G36U,0.07
7,G21C C23U,1.27
8,G21C C23G,0.53
9,G21C C23A,0.43
10,U20G U28A,0.17
11,U20G U28G,0.51
12,U20G U28C,0.67
13,G21U C37A,0.09
14,G21U C37U,0.06
15,G21U C37G,0.04
16,G21C G40A,0.04
17,G21C G40C,0.07
18,G21C G40U,0.15
19,G21A G36C,0.1
20,G21A G36U,0.15
21,G21A G36A,0.3
22,G21A A24G,2.26
23,G21A A24C,1.61
24,G21A A24U,2.52

row,Variant,self-cleavage
1,G21C G44U,0.28
2,G21C G44A,0.34
3,G21C G44C,0.4
4,G21A C45A,0.97
5,G21A C45G,0.26
6,G21A C45U,2.04
7,G21U A26U,1.93
8,G21U A26C,1.29
9,G21U A26G,1.29
10,G21A U32A,0.08
11,G21A U32C,0.48
12,G21A U32G,0.1
13,G21A C23U,1.02
14,G21A C23G,0.78
15,G21A C23A,1.07
16,G21C C45G,0.07
17,G21C C45U,1.56
18,G21C C45A,0.49
19,G21A G33A,0.08
20,G21A G33U,0.26
21,G21A G33C,0.12
22,G21A G29A,1
23,G21A G29C,0.63
24,G21A G29U,2.19

row,Variant,self-cleavage
1,G21A C42A,0.54
2,G21A C42G,0.06
3,G21A C42U,1.82
4,U20G U43C,0.04
5,U20G U43A,0.03
6,U20G U43G,0.02
7,G21A C37U,0.07
8,G21A C37G,0.04
9,G21A C37A,0.08
10,G21C C31U,0.3
11,G21C C31A,0.19
12,G21C C31G,0.09
13,G21C C37U,0.01
14,G21C C37G,0.05
15,G21C C37A,0.02
16,G21A U43G,0.14
17,G21A U43C,0.18
18,G21A U43A,0.17
19,G21U U38G,0.04
20,G21U U38A,0.42
21,G21U U38C,0.9
22,G21C C46U,0.83
23,G21C C46A,1.13
24,G21C C46G,0.51

row,Variant,self-cleavage
1,G21U G33A,0.26
2,G21U G33U,0.17
3,G21U G33C,0.08
4,G22A U28G,0.67
5,G22A U28C,0.51
6,G22A U28A,0.4
7,G21U G27C,0.54
8,G21U G27A,0.45
9,G21U G27U,0.54
10,G22A C42U,0.7
11,G22A C42G,0.03
12,G22A C42A,0.35
13,G21U G36A,0.27
14,G21U G36C,0.1
15,G21U G36U,0.12
16,G22A C31U,0.49
17,G22A C31A,0.2
18,G22A C31G,0.1
19,G21U C42G,0.04
20,G21U C42U,0.53
21,G21U C42A,0.23
22,G22A A24G,1.53
23,G22A A24U,0.75
24,G22A A24C,0.48

row,Variant,self-cleavage
1,G22A,0.81
2,G22C,0.78
3,G22A G36C,0.13
4,G22A G36U,0.15
5,G22A G36A,0.1
6,G21A U38A,0.89
7,G21A U38C,1.12
8,G21A U38G,0.03
9,G21C A26G,0.35
10,G21C A26C,1.03
11,G21C A26U,1.57
12,G21U G40A,0.29
13,G21U G40U,0.18
14,G21U G40C,0.11
15,G22A C46U,0.84
16,G22A C46A,1.03
17,G22A C46G,1.22
18,G21C U43G,0.02
19,G21C U43C,0.06
20,G21C U43A,0.07
21,G21C U32A,0.13
22,G21C U32G,0.23
23,G21C U32C,1.82
24,G22A G33U,0.22

row,Variant,self-cleavage
1,G22A G33C,0.05
2,G22A G33A,0.52
3,G21U G22A,1.03
4,G21U G22C,1.71
5,G21U G22U,1.4
6,G21U C31G,0.08
7,G21U C31U,0.3
8,G21U C31A,0.19
9,G22A G29C,0.21
10,G22A G29U,0.65
11,G22A G29A,0.27
12,G21A U34A,0.08
13,G21A U34C,0.14
14,G21A U34G,0.64
15,G21A U28A,1.94
16,G21A U28G,1.2
17,G21A U28C,1.44
18,G21U U28A,0.51
19,G21U U28G,0.52
20,G21U U28C,0.92
21,G22A A41G,0.31
22,G22A A41C,0.09
23,G22A A41U,0.66
24,G21A A26U,1.89

row,Variant,self-cleavage
1,G21A A26G,1.94
2,G21A A25U,1.75
3,G21A A25C,2.37
4,G21A A25G,1.4
5,G21U A24U,1.01
6,G21U A24C,0.51
7,G21U A24G,1.37
8,G21C G33C,0.05
9,G21C G33A,0.8
10,G21C G33U,0.11
11,G21C G29U,0.48
12,G21C G29C,0.55
13,G21C G29A,0.5
14,G22A G35A,0.23
15,G22A G35C,0.12
16,G22A G35U,0.14
17,G21C U34G,0.24
18,G21C U34C,0.19
19,G21C U34A,0.12
20,G22A A25G,1.23
21,G22A A25C,0.8
22,G22A A25U,1.38
23,G21U G30A,1.81
24,G21U G30C,2.18

row,Variant,self-cleavage
1,G21U G30U,1
2,G21U C45A,0.68
3,G21U C45U,1.62
4,G21U C45G,0.18
5,G22A C45G,0.32
6,G22A C45U,1.44
7,G22A C45A,0.67
8,G22A U43C,0.07
9,G22A U43G,0
10,G22A U43A,0.06
11,G22C A26G,0.87
12,G22C A26C,2.46
13,G22C A26U,0.82
14,G22A U32C,1.4
15,G22A U32A,0.07
16,G22A U32G,0.14
17,G21A G27C,1.22
18,G21A G27A,1.01
19,G21A G27U,1.35
20,G21C U28A,0.3
21,G21C U28G,0.45
22,G21C U28C,1.39
23,G22A G27A,0.51
24,G22A G27C,0.9

row,Variant,self-cleavage
1,G22A G27U,0.75
2,G21U U43A,0.08
3,G21U U43C,0.2
4,G21U U43G,0.07
5,G21U A25C,1.44
6,G21U A25U,1.88
7,G21U A25G,1.23
8,G21A A39C,0.68
9,G21A A39G,0.14
10,G21A A39U,1.82
11,G21U U34A,0.12
12,G21U U34G,0.34
13,G21U U34C,0.27
14,U20G U34A,0.06
15,U20G U34C,0.39
16,U20G U34G,0.14
17,G21C U38C,0.48
18,G21C U38G,0.02
19,G21C U38A,0.21
20,G22A A39C,0.09
21,G22A A39U,0.5
22,G22A A39G,0.17
23,U20G G35C,0.11
24,U20G G35U,0.12

row,Variant,self-cleavage
1,G21A G44A,0.98
2,G21A G44U,0.56
3,G21A G44C,0.52
4,G22A C37A,0.04
5,G22A C37G,0.03
6,G22A C37U,0.05
7,G21C C42A,0.19
8,G21C C42U,0.36
9,G21C G30C,1.62
10,G21C G30A,1.86
11,G21C G30U,1.1
12,G21C A41C,0.07
13,G21C A41U,0.5
14,G21C A41G,0.32
15,G21C G22C,0.57
16,G21C G22A,0.48
17,G21C G22U,0.46
18,U20G G40A,0.06
19,U20G G40U,0.13
20,U20G G40C,0.04
21,G21A G22C,0.38
22,G21A G22A,1.3
23,G21A G22U,0.56
24,G22A G30U,0.96

row,Variant,self-cleavage
1,G22A G30A,1.24
2,G22A U34C,0.87
3,G22A U34A,0.2
4,G22A U34G,0.51
5,G21U G29A,0.63
6,G21U G29U,0.55
7,G21U G29C,0.4
8,G21U C46G,1.29
9,G21U C46U,1.13
10,G21U C46A,1.14
11,G21C G35C,0.08
12,G21C G35A,0.16
13,G21C G35U,0.16
14,G22A G40A,0.08
15,G22A G40U,0.12
16,G22A G40C,0.09
17,G22A G44C,0.23
18,G22A G44A,0.97
19,G22A G44U,0.34
20,G21U A41C,0.06
21,G21U A41G,0.28
22,G21U A41U,0.9
